# Measured values: the supplement of paper PMC12042874
# ± gives the uncertainty stated by the source.
# Assay: amyloid nucleation score (Sup35N fusion, yeast selection) (log enrichment); library NNK1; higher = more nucleation; inactive = no reads after selection
# Outline: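 DiMSum was used to calculate nucleation scores as log enrichment of output over input reads, centred on the mode score of non-aggregating sequences. Sequences with fewer than 100 input reads were not scored. Input and output came from Illumina sequencing of plasmid inserts in psi-negative yeast expressing peptides of 20 random codons fused to Sup35N, induced 24 hours with 100 μM copper sulfate and then grown 7 days at 30°C on medium lacking adenine and uracil.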
row,Substance,amyloid nucleation score
1,LFTIMMQPMGCHPCRPLASQ,0.082 ± 0.52
2,LFTTFNNLISVFTVVLNSNQ,6.79 ± 0.076
3,LFVSNMC,-1.47 ± 0.91
4,LFVVFHALTIFYP,-0.437 ± 1.2
5,LFYSNMIVTVSRSVVRMRGA,0.659 ± 0.79
6,LGATGIGVYTVGHTFKS,-0.382 ± 0.44
7,LGCYTLESLGEYDNSNNWLL,0.932 ± 0.69
8,LGDTVCVRYCR,0.223 ± 0.37
9,LGFACLSIILSRKSKMWDML,2.13 ± 0.11
10,LGISPVSTGKKVNEDVYSGF,0.618 ± 0.79
11,LGNCTGRRHV,2.42 ± 0.36
12,LGNLM,-0.109 ± 0.95
13,LGTCPYSPPEANN,-0.604 ± 0.5
14,LGVAFQRYVCICEVVSLSRG,0.523 ± 0.32
15,LGWRSTFCMKYTSQSLSLPR,-0.221 ± 0.58
16,LHMLKMICKVVNRVSYS,-0.098 ± 0.23
17,LHRALGQSSWWARQW,-0.13 ± 1
18,LHRRNSCSIYRLLGFCLLPI,1.25 ± 0.6
19,LHSNGSD,inactive
20,LHTMCGK,0.03 ± 0.97
21,LICAAAKLIHGWGNKWIYVT,-0.368 ± 1.7
22,LIDRCWMAGRAFNLLMF,-0.331 ± 0.76

row,Substance,amyloid nucleation score
1,LIELRIWLLHLPMYGVLESI,-0.758 ± 0.39
2,LIFLKLSSIRYFLMGHY,1.43 ± 0.25
3,LIGFSRVSSGFSPFTPAHCR,2.04 ± 0.14
4,LIGIVKGTTVSRMGNTVIDR,inactive
5,LIIRVWLKNQPDTLGKRRRE,-0.415 ± 1.4
6,LIKRVQLFV,-0.284 ± 0.4
7,LILLLFEGFLLP,0.246 ± 0.63
8,LILRLVHKLGLCVPLSGSRG,-0.827 ± 1.7
9,LILRVSFN,2.28 ± 0.16
10,LINKNSSSAFCVMLGHYWVR,-1.03 ± 0.66
11,LIPCGPLFLFMQTNIDRANM,7.845 ± 0.044
12,LISHPFDPLIKVGDIQMYSF,0.012 ± 0.61
13,LISLLGSISMGPCIVRVYN,-0.259 ± 0.48
14,LISRIS,0.303 ± 1
15,LITMGMTRIYILMISDYLKF,0.701 ± 0.51
16,LIVMVKV,0.111 ± 0.33
17,LKELYG,0.303 ± 0.65
18,LKFNAP,-0.14 ± 1.4
19,LKIKGGWVFVTSIW,-0.008 ± 0.35
20,LKLYINIIVVNYNLLSICSH,-0.504 ± 0.24
21,LKNSRYSKLFIESMTWWLVY,0.087 ± 0.16
22,LKNTVHWTADHFRVTSP,-0.623 ± 0.67

row,Substance,amyloid nucleation score
1,LKRVQCNSDRAMWCVALVLT,0.314 ± 0.59
2,LKSLLNSSGVTLGEVLRMGV,-0.091 ± 0.45
3,LKSRGWYCFSNVTMYDLRME,3.42 ± 0.067
4,LKSSSCHQTSISHRALFCNL,-0.373 ± 1.2
5,LKYPMGFPDRSL,-0.658 ± 1.1
6,LKYTVPGLISPGFLGVVDYV,-0.624 ± 0.34
7,LLALCCDSLRCYR,0.282 ± 1.2
8,LLALYCNDPKLEDSTLREFN,1.15 ± 0.71
9,LLAMFKFDNPHILFCSSILL,5.62 ± 0.078
10,LLCFIIILCSRELNVDA,0.279 ± 1.2
11,LLDLDVTLIRNHWWFKSLLA,-0.047 ± 0.41
12,LLDMNANECYLPIWWQSEVT,0.092 ± 0.96
13,LLFSKRVLVSWGFDRGGSEE,0.336 ± 0.57
14,LLGNSLAVSFSFNSLVNHYS,6.02 ± 0.063
15,LLKVQGF,1.13 ± 0.51
16,LLLVCMHGSFAMYMPLNNRW,0.922 ± 0.93
17,LLMYLLHSCYNVMHCLCLNF,0.128 ± 0.21
18,LLNLHGSLMYLPSDLLGSHS,0.156 ± 0.56
19,LLNLYWFLSVPDTINLSHER,8.087 ± 0.05
20,LLQNNCHLYYCLNGLVFRVR,0.162 ± 0.32
21,LLRVTEYLIIRPCSVFVINR,-0.459 ± 0.36
22,LLRWLFCFEWHDSNMSTNII,-1.76 ± 2.4

row,Substance,amyloid nucleation score
1,LLSPLTRLYFRKFFSVGKAW,0.353 ± 1.2
2,LLSQVTCGMQTVRRNGGIIR,-0.195 ± 0.65
3,LLSRFRNCNKFDVRQSLRQN,5.328 ± 0.051
4,LLVKNHMRSQEWPLKNSLTN,-1.24 ± 2.4
5,LLVSGVRSRKTQRWSFRACS,0.634 ± 0.7
6,LLVVRLNVCRRHMDFKYG,-0.419 ± 0.39
7,LLVVVTLAI,0.89 ± 0.51
8,LLWRVSPSTLTSAIFKCLHS,-0.741 ± 0.86
9,LLWTGY,2.43 ± 0.099
10,LMASDVT,0.127 ± 0.43
11,LMDAEFIMVFTL,0.918 ± 0.2
12,LMEIFLNLPPANKNSYNRR,-0.766 ± 2.4
13,LMISGPYWR,-0.142 ± 0.56
14,LMLRLRVLPVA,-0.234 ± 0.26
15,LMQSCWSFHYNRLASLLRHT,-0.316 ± 0.88
16,LMRDSCHDQQVLGCFYMSKL,-0.215 ± 1.2
17,LMRHMFAWVDFIFSGSTQAC,1.14 ± 0.97
18,LMSLEHELRVKS,inactive
19,LMTLLSSLSPAQSSLPT,1.27 ± 0.8
20,LNGNLVTMEGVLINNSFRVT,0.394 ± 0.24
21,LNGWIVEGLNNADLTRRRWV,0.235 ± 0.6
